Article doi:10.1101/2023.05.26.542337 (bioRxiv, 2023)

B1: Cas1 (type I-F, Pseudomonas aeruginosa PA14) (enzyme)
chain: MDDISPSELKTILHSKRANLYYLQHCRVLVNGGRVEYVTDEGRHSHYWNIPIANTTSLLLGTGTSITQAAMRELARAGVLVGFCGGGGTPLFSANEVDVEVSWLTPQSEYRPTEYLQRWVGFWFDEEKRLVAARHFQRARLERIRHSWLEDRVLRDAGFAVDATALAVAVEDSARALEQAPNHEHLLTEEARLSKRLFKLAAQATRYGEFVRAKRGSGGDPANRFLDHGNYLAYGLAATATWVLGIPHGLAVLHGKTRRGGLVFDVADLIKDSLILPQAFLSAMRGDEEQDFRQACLDNLSRAQALDFMIDTLKDVAQRSTVSA
B2: Cas2/3 (fusion of Cas2 to the Cas3 nuclease/helicase, type I-F, Pseudomonas aeruginosa PA14) (enzyme)
chain: MNILLVSQCEKRALSETRRILDQFAERRGERTWQTPITQAGLDTLRRLLKKSARRNTAVACHWIRGRDHSELLWIVGDASRFNAQGAVPTNRTCRDILRKEDENDWHSAEDIRLLTVMAALFHDIGKASQAFQAKLRNRGKPMADAYRHEWVSLRLFEAFVGPGSSDEDWLRRLADKRETGDAWLSQLARDDRQSAPPGPFQKSRLPPLAQAVGWLIVSHHRLPNGDHRGSASLARLPAPIQSQWCGARDADAKEKAACWQFPHGLPFASAHWRARTALCAQSMLERPGLLARGPALLHDSYVMHVSRLILMLADHHYSSLPADSRLGDPNFPLHANTDRDSGKLKQRLDEHLLGVALHSRKLAGTLPRLERQLPRLARHKGFTRRVEQPRFRWQDKAYDCAMACREQAMEHGFFGLNLASTGCGKTLANGRILYALADPQRGARFSIALGLRSLTLQTGQAYRERLGLGDDDLAILVGGSAARELFEKQQERLERSGSESAQELLAENSHVHFAGTLEDGPLREWLGRNSAGNRLLQAPILACTIDHLMPASESLRGGHQIAPLLRLMTSDLVLDEVDDFDIDDLPALSRLVHWAGLFGSRVLLSSATLPPALVQGLFEAYRSGREIFQRHRGAPGRATEIRCAWFDEFSSQSSAHGAVTSFSEAHATFVAQRLAKLEQLPPRRQAQLCTVHAAGEARPALCRELAGQMNTWMADLHRCHHTEHQGRRISFGLLRLANIEPLIELAQAILAQGAPEGLHVHLCVYHSRHPLLVRSAIERQLDELLKRSDDDAAALFARPTLAKALQASTERDHLFVVLASPVAEVGRDHDYDWAIVEPSSMRSIIQLAGRIRRHRSGFSGEANLYLLSRNIRSLEGQNPAFQRPGFETPDFPLDSHDLHDLLDPALLARIDASPRIVEPFPLFPRSRLVDLEHRRLRALMLADDPPSSLLGVPLWWQTPASLSGALQTSQPFRAGAKERCYALLPDEDDEERLHFSRYEEGTWSNQDNLLRNLDLTYGPRIQTWGTVNYREELVAMAGREDLDLRQCAMRYGEVRLRENTQGWSYHPYLGFKKYN

Target: the molecule itself
Assay: cryo-EM structure

Protein | binding result
B1 | binds
B2 | binds
